We go through 4 molecules from patent publication US20090291081A1.

Experiment [1] has as its target human IL-1β (human) (UniProt P01584). Nature of the experiment: cell-based or functional assay.
The target of experiment [2] is human IL-1α (human) (UniProt P01583). As to the kind of experiment: cell-based or functional assay.
Sequence of human IL-1α (human) (P01583 113-271 limits assumed): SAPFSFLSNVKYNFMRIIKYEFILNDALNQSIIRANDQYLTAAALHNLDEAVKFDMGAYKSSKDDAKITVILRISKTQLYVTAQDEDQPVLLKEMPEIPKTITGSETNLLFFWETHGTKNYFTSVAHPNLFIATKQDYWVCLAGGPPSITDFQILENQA

Sequence of human IL-1β (human) (P01584 117-269 limits assumed): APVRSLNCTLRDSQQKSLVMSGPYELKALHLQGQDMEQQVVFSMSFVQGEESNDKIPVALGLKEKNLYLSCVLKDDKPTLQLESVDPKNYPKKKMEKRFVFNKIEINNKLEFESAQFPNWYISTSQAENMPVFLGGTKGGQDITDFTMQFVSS

B1: ABT1-98/ABT2-108-538x scFc (Fc fusion, part only; not given: Domain junction linker and Fc, not shown: a dimerising Fc or GST)
chain, part: EVQLLESGGGLVQPGGSLRLSCAASGFTFDGYIMSWVRQAPGKGLEWVSTISPLGSVTYYADSVKGRFTISRDNSKNTLYLQMNSLRAEDTAVYYCAKKGPWFDYWGQGTLVTVSSEVQLLESGGGLVQPGGSLRLSCAASGFTFADEGMMWVRQAPGKGLEWVSRITYSGKNTYYADSVKGRFTISRDNSKNTLYLQMNSLRAEDTAVYYCAKYTGRILGHHLFDYWGQGTLVTVSSGGGGSGGGGSGGGGS
For B1, the Estimated EC50, IL-1β neutralization (MRC-5) in experiment [1] is 1.3 nM. Further, the Estimated EC50, IL-1α neutralization (MRC-5) in experiment [2] was 30 nM.

B2: ABT1-207/ABT2-108-538x scFc (Fc fusion, part only; not given: Domain junction linker and Fc, not shown: a dimerising Fc or GST)
chain, part: EVQLLESGGGLIQPGGSLRLSCAASGFTFGRYYMSWVRQAPGKGLEWVSSIDYLGTNTYYADSVKGRFTISRDNSKNTLYLQMNSLRAEDTAVYYCAKLTRIRPPNFDYWGQGTLVTVSSEVQLLESGGGLVQPGGSLRLSCAASGFTFADEGMMWVRQAPGKGLEWVSRITYSGKNTYYADSVKGRFTISRDNSKNTLYLQMNSLRAEDTAVYYCAKYTGRILGHHLFDYWGQGTLVTVSSGGGGSGGGGSGGGGS
Take B2: in experiment [1], the Estimated EC50, IL-1β neutralization (MRC-5) was 1.1 nM. In experiment [2], the Estimated EC50, IL-1α neutralization (MRC-5) is 25 nM.

B3: ABT2-108-538x/ABT1-98 scFc (Fc fusion, part only; not given: Domain junction linker and Fc, not shown: a dimerising Fc or GST)
chain, part: EVQLLESGGGLVQPGGSLRLSCAASGFTFADEGMMWVRQAPGKGLEWVSRITYSGKNTYYADSVKGRFTISRDNSKNTLYLQMNSLRAEDTAVYYCAKYTGRILGHHLFDYWGQGTLVTVSSEVQLLESGGGLVQPGGSLRLSCAASGFTFDGYIMSWVRQAPGKGLEWVSTISPLGSVTYYADSVKGRFTISRDNSKNTLYLQMNSLRAEDTAVYYCAKKGPWFDYWGQGTLVTVSSGGGGSGGGGSGGGGS
With B3, in experiment [1], the Estimated EC50, IL-1β neutralization (MRC-5) is < 0.001 nM. The Estimated EC50, IL-1α neutralization (MRC-5) in experiment [2] was 3 nM.

B4: ABT2-108-538x/ABT1-207 scFc (Fc fusion, part only; not given: Domain junction linker and Fc, not shown: a dimerising Fc or GST)
chain, part: EVQLLESGGGLVQPGGSLRLSCAASGFTFADEGMMWVRQAPGKGLEWVSRITYSGKNTYYADSVKGRFTISRDNSKNTLYLQMNSLRAEDTAVYYCAKYTGRILGHHLFDYWGQGTLVTVSSEVQLLESGGGLIQPGGSLRLSCAASGFTFGRYYMSWVRQAPGKGLEWVSSIDYLGTNTYYADSVKGRFTISRDNSKNTLYLQMNSLRAEDTAVYYCAKLTRIRPPNFDYWGQGTLVTVSSGGGGSGGGGSGGGGS
B4: the Estimated EC50, IL-1β neutralization (MRC-5) in experiment [1] is 0.002 nM. Moreover, the Estimated EC50, IL-1α neutralization (MRC-5) in experiment [2] was 50 nM.
